# Data: IntAct's records for PubMed 17964261
# B1: Proline-serine-threonine phosphatase-interacting protein 1 (Homo sapiens), O43586 (parent)
# chain: MMPQLQFKDAFWCRDFTAHTGYEVLLQRLLDGRKMCKDMEELLRQRAQAEERYGKELVQIARKAGGQTEINSLRASFDSLKQQMENVGSSHIQLALTLREELRSLEEFRERQKEQRKKYEAVMDRVQKSKLSLYKKAMESKKTYEQKCRDADDAEQAFERISANGHQKQVEKSQNKARQCKDSATEAERVYRQSIAQLEKVRAEWEQEHRTTCEAFQLQEFDRLTILRNALWVHSNQLSMQCVKDDELYEEVRLTLEGCSIDADIDSFIQAKSTGTEPPAPVPYQNYYDREVTPLTSSPGIQPSCGMIKRFSGLLHGSPKTTSLAASAASTETLTPTPERNEGVYTAIAVQEIQGNPASPAQEYRALYDYTAQNPDELDLSAGDILEVILEGEDGWWTVERNGQRGFVPGSYLEKL
# partner: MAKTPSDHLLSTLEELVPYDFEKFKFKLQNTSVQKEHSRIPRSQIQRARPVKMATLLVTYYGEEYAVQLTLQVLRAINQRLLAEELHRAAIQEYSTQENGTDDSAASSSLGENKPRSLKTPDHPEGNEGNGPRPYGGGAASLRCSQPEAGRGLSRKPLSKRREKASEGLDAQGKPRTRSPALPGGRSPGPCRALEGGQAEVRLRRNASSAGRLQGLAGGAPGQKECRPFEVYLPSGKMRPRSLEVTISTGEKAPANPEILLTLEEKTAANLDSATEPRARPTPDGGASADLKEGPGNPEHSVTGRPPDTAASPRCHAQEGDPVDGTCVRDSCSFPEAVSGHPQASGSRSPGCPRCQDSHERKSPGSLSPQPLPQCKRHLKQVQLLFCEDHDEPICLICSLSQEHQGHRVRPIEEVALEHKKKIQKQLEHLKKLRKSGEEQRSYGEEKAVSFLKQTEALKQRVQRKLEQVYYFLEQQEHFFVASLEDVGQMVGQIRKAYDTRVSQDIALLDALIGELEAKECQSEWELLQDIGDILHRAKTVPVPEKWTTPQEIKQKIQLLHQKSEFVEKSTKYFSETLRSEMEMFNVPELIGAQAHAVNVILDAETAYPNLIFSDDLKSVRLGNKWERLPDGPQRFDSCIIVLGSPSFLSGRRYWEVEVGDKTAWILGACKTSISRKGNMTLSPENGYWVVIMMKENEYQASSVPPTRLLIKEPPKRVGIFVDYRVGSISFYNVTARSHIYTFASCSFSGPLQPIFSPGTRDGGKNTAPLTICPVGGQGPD
# Variants of: B1
# Conditions: with mefv_human MEFV
row,effect of a mutation on the interaction,Variant
1,increasing interaction strength,E250Q
2,increasing interaction strength,A230T
